Measured values as given in patent publication US20080221021A1, “Novel Corticotropin-Releasing Factor Receptor 1 (Crfr1) Agonist” (Max-Planck-Gesellschaft Zur Forderung Der, priority 2004, published 2008).
“Also recorded” adds a separate entry of the source. Where no end group is shown, it is not given here.

How the values were obtained:
rCRFR1 [1] = target: T1, rCRFR1 (Rattus norvegicus, UniProt P35353); assay: Competition binding scintillation proximity assay, rCRFR1 membranes
T1 construct: expressed in transfected cells
T1 sequence (P35353 24-415): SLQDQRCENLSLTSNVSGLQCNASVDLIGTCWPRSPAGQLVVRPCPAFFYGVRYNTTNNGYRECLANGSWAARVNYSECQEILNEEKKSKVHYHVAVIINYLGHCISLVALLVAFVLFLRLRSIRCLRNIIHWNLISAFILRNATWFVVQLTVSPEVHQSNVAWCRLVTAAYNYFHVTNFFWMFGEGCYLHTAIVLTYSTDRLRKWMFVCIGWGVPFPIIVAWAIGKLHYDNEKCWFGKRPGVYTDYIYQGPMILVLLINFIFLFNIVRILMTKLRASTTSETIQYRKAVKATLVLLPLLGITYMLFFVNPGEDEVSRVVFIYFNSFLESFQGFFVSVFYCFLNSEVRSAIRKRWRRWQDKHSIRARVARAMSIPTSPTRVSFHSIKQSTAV
Procedure: (§1) Crude membrane fractions were prepared from human embryonic kidney (HEK) 293 cells stably expressing either cloned rat CRFR1α(rCRFR1) or mouse CRFR2β (mCRFR2β) as described (20). Rat CRFBP (rCRFBP) was produced in HEK 293 cells stably transfected with cDNA coding for rCRFBP C-terminally fused with a His6 sequence as described (36). The scintillation proximity assays (SPA) for binding analysis of CRFR and CRFBP have been already described in detail (21, 22). For competition binding assays of rCRFR1 and rCRFBP, [^125I-Tyr^0]h/rCRF was used as radiolabeled peptide, whereas [^125I-Tyr^0]Svg was employed for mCRFR2β.

mCRFR2β [2] = target: T2, mCRFR2β (Mus musculus, UniProt Q60748); assay: Competition binding scintillation proximity assay, mCRFR2β membranes
T2 construct: expressed in transfected cells
T2 sequence (Q60748 1-431 isoform Q60748-2): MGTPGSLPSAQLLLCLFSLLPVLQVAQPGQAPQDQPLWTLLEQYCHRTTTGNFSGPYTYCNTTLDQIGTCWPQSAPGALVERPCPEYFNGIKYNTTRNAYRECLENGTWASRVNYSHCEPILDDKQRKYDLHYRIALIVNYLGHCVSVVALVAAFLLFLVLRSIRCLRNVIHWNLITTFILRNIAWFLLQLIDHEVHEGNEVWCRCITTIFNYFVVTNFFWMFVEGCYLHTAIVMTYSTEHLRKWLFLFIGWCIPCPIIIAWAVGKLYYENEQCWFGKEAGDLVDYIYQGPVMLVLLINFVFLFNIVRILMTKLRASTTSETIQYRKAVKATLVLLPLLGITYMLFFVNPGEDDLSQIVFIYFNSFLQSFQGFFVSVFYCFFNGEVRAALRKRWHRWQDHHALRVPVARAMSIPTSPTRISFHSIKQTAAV
Procedure: as §1

rCRFBP = target: T3, rCRFBP (Rattus norvegicus, UniProt P24388); assay: Competition binding scintillation proximity assay, rCRFBP; details: binding analysis, in words
T3 construct: His6 (C); made in house; host or cells: HEK 293 cells, stably transfected
T3 sequence (P24388 25-322): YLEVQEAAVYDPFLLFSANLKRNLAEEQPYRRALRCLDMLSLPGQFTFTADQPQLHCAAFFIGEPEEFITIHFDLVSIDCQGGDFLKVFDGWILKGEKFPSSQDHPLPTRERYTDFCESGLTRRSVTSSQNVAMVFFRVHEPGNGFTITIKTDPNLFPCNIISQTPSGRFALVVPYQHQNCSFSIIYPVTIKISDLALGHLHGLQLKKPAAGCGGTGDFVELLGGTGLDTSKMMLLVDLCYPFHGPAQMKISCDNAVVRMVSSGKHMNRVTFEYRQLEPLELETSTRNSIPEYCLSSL
Procedure: as §1

rCRFR1 [3] = target: T1, rCRFR1; assay: Agonist-induced intracellular cAMP accumulation in HEK 293 cells producing rCRFR1; format: cell-based
Procedure: (§2) The biological potency of cortagine and OCRF was evaluated by the determination of the EC50 values for agonist-induced intracellular accumulation of cAMP in HEK 293 cells producing either rCRFR1 or mCRFR2β.
(§3) The HEK 293 cells were plated into 24 well cell culture plates and stimulated as described (21) using increasing concentrations of the agonists under investigation. Intracellular cAMP was measured with the Biotrak™ cAMP [^125I] SPA system (Amersham Pharmacia Biotech) according to the manufacturer's product manual.

mCRFR2β [4] = target: T2, mCRFR2β; assay: Agonist-induced intracellular cAMP accumulation in HEK 293 cells producing mCRFR2β; format: cell-based; details: in words
Procedure: as §2, §3

[5] = Maximum solubility in aCSF by amino acid analysis; format: physicochemical; details: pH 7.4
Procedure: (§4) After dissolving the peptides in artificial cerebrospinal fluid (aCSF; 124 mM NaCl, 26.4 mM NaHCO3, 10 mM glucose, 3.3 mM KCl, 2.5 mM CaCl2 , 2.4 mM MgSO4 , 1.2 mM KH2PO4) at pH=7.4, the maximum solubility cmax was determined by amino acid analysis as described (21). The isoelectric point of the peptides was determined by isoelectric focusing (IEF) as described (21) with a Bio-Rad IEF cell system using Bio-Rad IEF strips in the pH range 3-10.

[6] = format: physicochemical
Procedure: A high solubility under physiological conditions is a crucial prerequisite especially for compounds to be injected into the rodent brain. […] Both peptides were soluble in a concentration range of up to 1000 μM (FIG. 6), so that there was no limitation in view of the agonist doses typically used in behavioral experiments. […] Consequently, solutions of cortagine to be used in the pharmacological assays were prepared in phosphate buffered saline (PBS; pH=7.4).

[7] = Isoelectric point by isoelectric focusing; format: physicochemical; details: IEF, pH range 3-10
Procedure: as §4

[Glu^21, Ala^40] [Svg^1-12]x[h/rCRF^14-30]x[Svg^30-40] (XGPPISIDLSLELLREVLEMERAEQLAQQAANNRLLLDTA; X not resolved here; ends and bridges not checked; also: Glx at position 1 not given here (Gln/Glu/pGlu)) [cortagine]
selectivity for CRFR1 (rCRFR1 [1]; binding analysis, CRFR1 vs CRFR2, in words): high selectivity for rCRFR1 over mCRFR2β | change in affinity to CRFR1 in comparison to parent peptide (rCRFR1 [1]; compound 8 vs compound 6, compound 9 vs compound 8, Nle20 analog vs compound 9): no significant change | CRFR1-selectivity over CRFR2β, IC50(mCRFR2)/IC50(rCRFR1) (rCRFR1 [1]; ratio of binding affinities): 208 | affinity for CRFR2 (mCRFR2β [2]; binding analysis, in words): negligible | change in affinity for CRFR2 in comparison to parent peptide (mCRFR2β [2]; compound 8 vs compound 6, compound 9 vs compound 8): no significant change | affinity to CRFBP (rCRFBP): negligible; also recorded: does not display any detectable affinity | affinity to CRFBP (rCRFBP; listed as compound 9): completely abolished | biological potency at rCRFR1 (rCRFR1 [3]; cAMP accumulation, in words): high agonistic potency and high | CRFR1-selectivity over CRFR2β, EC50(mCRFR2)/EC50(rCRFR1) (rCRFR1 [3]; ratio of biological potencies (cAMP)): 89 | biological potency at mCRFR2β compared with rCRFR1 (mCRFR2β [4]): about one to two orders of magnitude lower | maximal solubility cmax [5]: up to 1000 μM | solubility in 10 mM aqueous acetic acid [6]: insoluble | isoelectric point pI [7]: 4.8
